Laboratory results taken from the domain aggregation screens of Martell et al. (2025).

Test: soluble fraction after stress (log2 fold change); higher = more stays soluble; pooled small domains, quantitative proteomics
Settings: stress: 50 degC
Outline: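 Pooled custom libraries of small protein domains were each held under stress at 50°C. The read-out, high-throughput quantitative proteomics, tracked how much of each protein stayed soluble. This is reported as a base-two log fold change used to indicate aggregation propensity. Higher values mean more protein remains in solution.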

| Sequence | soluble fraction (log2) |
| --- | --- |
| HMREPIPVPSRPIRAGDLVEIPGTNRPAEVTAVKGDRLVLKAGVLSMTVKNDEVRLIEDDERAAM | 0.0715 |
| HMREQAHEVAGKLGYPVMVKASAGGGGKGIRIVRTEDELDQAFEAAQSETKAAFGDDQMYMEKVI | 0.00859 |
| HMRESDQSTVELSLERTIQEALMVNPRTSSVEEFSFEWGTGRVKVSFIVYSVDGEPFTVDSIIE | -2.27 |
| HMREVEAPRDLLAALGERPGALDAWKALSFTHQREYVEAIEDARKPETRERRIANAVKMVAERS | 0.285 |
| HMREVPHGEYEVKIEKLELVESKAGDPMVTVWFKVLAGDYKGSMIFMNQVITKGFQIHIMNEFLR | -0.256 |
| HMREYEKAVDYVRRMISSGSLNVGDRLPTERELSLELDISRNSTREAMRMLENMGIIVSRHGSGNYISGN | -0.594 |
| HMRFDADELQKAYDLFDADENTPFKTIKQAYYALARRHHPDKNGDQEYFKVINNAFQLIQEHRRRRDN | -0.246 |
| HMRFGNHHVYRTLMVLSDQKRKGRKQIADAVGIGEGSMRTIIEYLRGLDMIDIRQTGVKITRHGNAFL | 0.0164 |
| HMRGAARRDRAVGERAVSKDTILDATRALLRKGSALEIRAIDIAEESGLSRQTVFQYYPVIRLIFFELSD | 0.138 |
| HMRGETSYANDIIKRLKQANLIVVEGTLYPLLNRLKKDGLLHYEWRESQQGPPRKYYGLTEEGEA | -0.132 |
| HMRGFGEVGQLPSGRYRARYTGPDGGRHSAPITFVARIDAEGWLVDQERMISRGEWEPPARQ | -0.224 |
| HMRGFGYVRRLPSKRYQASYAGPDLQRHVAPTTFTTKADAESWLGAERKVVESGSWRPPAVREAEARLS | 0.357 |
| HMRGLIEPLSQRELEVLMLMARGQSNAHIADQLNISENTIKWHGRNIFGKLGVSNRTEAVITSQEMGMLAT | -0.621 |
| HMRGRFGNAAPARNLGDHPQGGAINVKAGRYGPYVSWGKVNATLPKDSDPEKVTLEEAVALIAAKQSGQG | -0.103 |
| HMRGVDRPLTLPRHWRRNAGRLVKVTLANGSAVTGRVLDPGEERVTLEVSGERHEVAYADVKKALVQVEF | -0.169 |
| HMRHLSVPNRQVEGALDHIRSQGWLAEGMRVFASEDGSARLIPLGPGAPLEMLEPLAKFDVISHEGKPY | -0.0914 |
| HMRHSLAAALTELRRLAALDLGDFFRFEYVSHTDSLGGKQQAYTEGIRVSFGVYLGVNKKDRLNVDPVV | -3.44 |
| HMRHTRQRQAVLDALVRSGQALSPQDLLGQAKSAVPSLNLSTVYRQIKGLQDAGQIVRVELPGQPPRFEM | -0.107 |
| HMRIAQYRQIENDLLEQINLGYYKKGDLIPTELELSATYHVSRVTVRKATDNLVAKGILQRVAGVGTFVSR | -1.87 |
| HMRIATVTPIEEDQASDRVVAVYNDIKSTKQIDFIPNFWKVIAVNPDLLEQVWGQLKTLMHPEEVG | -0.659 |
| HMRIEDTMDYINKIKEKLKNNGGVITSKEFTRSNIPTIYLTRMVETGELIRIDRGIYINSSG | -0.538 |
| HMRIEYYDDEELDRYIGTPASGYREAAVEEFREILLTLDADDVPGWVRSLQLRGIEFPESLRPELYL | -0.575 |
| HMRIFDDNMIFPTEAEISAALKRLVMDLPKVGFLQGHGERAVDNVGERAYSMFTHANNFRYALINQGFVT | -0.176 |
| HMRIHKQLGDRIRNLRLSSGMNQEELAFKSGISAAHLGQIERGLKSPTISTIQKIAKALNVTLPILF | -0.298 |
| HMRININNASARQIADALPGVGLKTARDIKDFQTTLSGERYTRLDQLHSIKRVDWDEIFKADLVRV | -0.0293 |

| Sequence | soluble fraction (log2) |
| --- | --- |
| HMRISMRDQVYEIIKNRILSREYSLGEPINIVHLSKELGISNTPIREALSQLETERLITINSNQKYHVT | -0.154 |
| HMRKDEFLQTLRRALNGNVPPRVVEENVRYYDGYISDEVRKGRSEEEVIEEIGDPRLIARTIEDTT | 0.0826 |
| HMRKDRKVLMERGRHIFNDLLEKEGIVATNQLMTKLLASHHLRNRDELYLMLANDDISLSSKEIKDLS | 0.0203 |
| HMRKEDYLPIGSVINMDDRKFRVDSVDFDKDKVSLQDMALADARMPIFWEEPLTVVRELYEQQDE | 0.0652 |
| HMRKEPSYASDIITRLKEADLIVVEGTLYPLLTRLKKDGLLSYEWRESTQGPPRKYYALTLDGET | -0.455 |
| HMRKIGDVLRLHAGGLSKRRIAVSLNIGRTAVGDYISRARRAGLGWPLPEDLSEEALERLLFPPP | -2.59 |
| HMRKIVEGVLTKKEGKWYLLTDIETYKISDASAEYHKAELNDRASALIPAQNPKVPFASLEKVFN | -0.219 |
| HMRKLHFVMSEIYEDHPWIGSKLQDVFLPKDIRVVLVERDSKQFMPNGQTLFELGDRLTLSALHYDPA | -3.02 |
| HMRKLTDRQRQILDLIKTIIAETGAPPTRAEISTALGFKSANAAQEHLQALAQKGMIDLVSGASRGIRLRG | -0.379 |
| HMRKMELTEAAEKLIEEPDVVSAYRNMQQIFQQWREIGPVPREQRDEVWSHFKDLMTQVNRRHQAHFEN | -0.0451 |
| HMRKPLDQSWVPDDDAMKILTNSGIEKEFIKNEIPEFILYWSDKGEISDSWNTKFISQIRRQWAKNQ | -0.222 |
| HMRKSAVSSTLTSIEGIGATRAKALLKHFKTVAAVSEADLKELEDAPGMTRPSALRVYEYFHGK | -0.165 |
| HMRKSLGEIVFDRMERAIKSGAYSPDERLPTELDLAAEFEVSRPVIRDALKRLRERGLIYSRQGAGSFVRA | -0.499 |
| HMRKTIQDFLSSNKVDIAKLLTLALEKTKEDLYKNLSYNLTNKELEKLKLLIKKREQGIPFAYLS | -0.0368 |
| HMRLADHVVEKLLALVQERGLQPGQKLPAERQLAEVLGVSRTSVREAIQKLVSQGVLSARRGDGTYVQS | 0.00808 |
| HMRLANGIGTVYKLSGNRRNPYIVRKTTGWEIDEESGKAKQKYITIGYAPTRAKGLEMLMDYNKNP | -0.428 |
| HMRLDHIFSVVERLKGVSLGAGDRLEVQKYEDLLTVYKSKNALSSEEAQTLNDILASLLKMMAKYD | -0.00461 |
| HMRLDSELVSARLHRFMGTNRKPDGEIVEKIAAILEGHPIETLDAFLQSLNGRKIKSYGFFPTVLRREIAN | -0.319 |
| HMRLEEVSVPQRLLAAIAEEREVQIGIVDGRGGTRVLRVEPLALEGGRLRARDVESGEEFTVLIHRVLL | -0.274 |
| HMRLLAESIARGLDPEGSGGLWAKEAGAEALKLMETLAAEAPHGGSFTAAAYRDLFESLVHQGEVREA | 0.0472 |
| HMRLLGEPLAGRLKKDVPVVTGRSTESKAIAQFFELRWSHLPDPEARTISVASGRIDFMDVGATRFSLR | 0.054 |
| HMRLSDSEFESIENAIKEKLENSALTADVLVKELSFDEDKIWKVIRWLEDAEKISEDEAGTLLWKPR | -0.22 |
| HMRLSESLLDDIPGIGAARKRALLQSFGSVRKLRHADAEEIAAKVPGIGLNFAEKIVEALRKK | 0.205 |
| HMRLTTTPKTARGLTTMNRIIRAAEVEFGRKGYHYTGITDIAQRAKVASGTIYLYFTDKYSLYVHLLT | 0.246 |
| HMRLYTQDVAVLNRDVIQGEVITSDMVTTVNVHKRTVPTGALNLSEIPGNVAKFNIPASIPITASMVTK | 0.0171 |
